In patent EP4592317A1 (ABlink Biotech Co., Ltd., dated 2025):
Where “and” joins values, the source holds several entries; their conditions need not be identical. Equal values may be shown once.

T1: Mouse 4-1BB extracellular region recombinant protein (his-tag) (mouse, UniProt P20334 24-187)
T1 construct: extracellular domain; also called Mouse4-1BB, his-tag; not shown: his-tag
T1 sequence (looked up): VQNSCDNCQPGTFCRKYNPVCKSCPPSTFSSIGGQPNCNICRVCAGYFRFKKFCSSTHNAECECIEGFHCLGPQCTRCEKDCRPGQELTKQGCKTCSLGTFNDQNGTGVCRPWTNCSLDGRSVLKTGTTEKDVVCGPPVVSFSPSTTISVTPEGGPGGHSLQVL

B1: 137-18 VHH-hFc recombinant antibody (Fc fusion)
chain: QVQLVESGGGLVHPGGSLRLSCAASGFIFSLYTMSWVRQAPGKGLEWVSDINSGGDSTDYADSVKGRFTISRDNAKSTLYLQMNSLKPEDTAVYYCAKDYPLGQREDYWGQGTQVTVSS
notes: VHH fragment inserted into vector pFclG with human IgG1 Fc tag, expressed in HEK293F; also called CD137-18; not shown: human IgG1 Fc tag of the eukaryotic expression vector pFclG
B2: 137-1 VHH-hFc recombinant antibody (Fc fusion)
chain: QVQLVESGGGLVQPGGSLRLSCVASGFVFSTVTMGWGRQVPGKEFEWVSGVSSEGITDYADSVKGRFTISRDNAKNTVYLEMNSLKSEDTAEYYCLIGGRWSFGTWGQGTQVTVSS
notes: also called CD137-1; not shown: human IgG1 Fc tag of the eukaryotic expression vector pFclG

Assays:
[1] = target: T2, Monkey 4-1BB extracellular region recombinant protein (his-tag) (monkey); test: ELISA, coated monkey 4-1BB-his 200 ng/well; antibody 0 µg/ml (background well)
T2 construct: extracellular domain; also called Monkey4-1BB, his-tag

[2] = target: T1, Mouse 4-1BB extracellular region …; test: ELISA, coated mouse 4-1BB-his 200 ng/well; antibody 3.33 µg/ml
[3] = target: T2, Monkey 4-1BB extracellular region …; test: ELISA, coated monkey 4-1BB-his 200 ng/well
[4] = target: T2, Monkey 4-1BB extracellular region …; test: ELISA, coated monkey 4-1BB-his 200 ng/well; antibody 0.37 µg/ml
[5] = target: T2, Monkey 4-1BB extracellular region …; test: ELISA, coated monkey 4-1BB-his 200 ng/well; antibody 0.014 µg/ml
[6] = target: T2, Monkey 4-1BB extracellular region …; test: ELISA, coated monkey 4-1BB-his 200 ng/well; antibody 10.0 µg/ml
[7] = target: T3, Human 4-1BB extracellular domain recombinant protein (his-tag) (human, UniProt Q07011 24-186); test: ELISA, coated human 4-1BB-his 200 ng/well; antibody 0.12 µg/ml
T3 construct: extracellular domain; also called Human4-1BB, his-tag; human 4-1BB extracellular region recombinant protein; not shown: his-tag

[8] = target: T3, Human 4-1BB extracellular domain …; test: ELISA, coated human 4-1BB-his 200 ng/well; antibody 10.0 µg/ml
[9] = target: T3, Human 4-1BB extracellular domain …; test: ELISA, coated human 4-1BB-his 200 ng/well
[10] = target: T1, Mouse 4-1BB extracellular region …; test: ELISA, coated mouse 4-1BB his-tag 200 ng/well
[11] = target: T1, Mouse 4-1BB extracellular region …; test: ELISA, coated mouse 4-1BB-his 200 ng/well; antibody 0.041 µg/ml
[12] = target: T2, Monkey 4-1BB extracellular region …; test: ELISA, coated monkey 4-1BB-his 200 ng/well; antibody 1.11 µg/ml
[13] = target: T2, Monkey 4-1BB extracellular region …; test: ELISA, coated monkey 4-1BB-his 200 ng/well; antibody 0.12 µg/ml
[14] = target: T2, Monkey 4-1BB extracellular region …; test: ELISA, coated monkey 4-1BB-his 200 ng/well; antibody 0.041 µg/ml
[15] = target: T3, Human 4-1BB extracellular domain …; test: ELISA, coated human 4-1BB-his 200 ng/well; antibody 0.37 µg/ml
[16] = target: T1, Mouse 4-1BB extracellular region …; test: ELISA, coated mouse 4-1BB-his 200 ng/well; antibody 0.12 µg/ml
[17] = target: T1, Mouse 4-1BB extracellular region …; test: ELISA, coated mouse 4-1BB-his 200 ng/well; antibody 0 µg/ml (background well)
[18] = target: T2, Monkey 4-1BB extracellular region …; test: ELISA, coated monkey 4-1BB-his 200 ng/well; antibody 3.33 µg/ml
[19] = target: T1, Mouse 4-1BB extracellular region …; test: ELISA, coated mouse 4-1BB-his 200 ng/well; antibody 0.014 µg/ml
[20] = target: T1, Mouse 4-1BB extracellular region …; test: ELISA, coated mouse 4-1BB-his 200 ng/well; antibody 1.11 µg/ml
[21] = target: T3, Human 4-1BB extracellular domain …; test: ELISA, coated human 4-1BB-his 200 ng/well; antibody 0 µg/ml (background well)
[22] = target: T3, Human 4-1BB extracellular domain …; test: ELISA, coated human 4-1BB-his 200 ng/well; antibody 0.014 µg/ml
[23] = target: T1, Mouse 4-1BB extracellular region …; test: ELISA, coated mouse 4-1BB-his 200 ng/well; antibody 0.37 µg/ml
[24] = target: T3, Human 4-1BB extracellular domain …; test: ELISA, coated human 4-1BB-his 200 ng/well; antibody 0.041 µg/ml
[25] = target: T3, Human 4-1BB extracellular domain …; test: ELISA, coated human 4-1BB-his 200 ng/well; antibody 1.11 µg/ml
[26] = target: T3, Human 4-1BB extracellular domain …; test: SPR (Biacore 8K), VHH-hFc captured on Protein A chip, human 4-1BB-his as analyte, 25°C, 1:1 fit
[27] = target: T1, Mouse 4-1BB extracellular region …; test: ELISA, coated mouse 4-1BB-his 200 ng/well; antibody 10.0 µg/ml
[28] = target: T3, Human 4-1BB extracellular domain …; test: ELISA, coated human 4-1BB-his 200 ng/well; antibody 3.33 µg/ml

Row | Binder | absorbance at 450 nm [1] | absorbance at 450 nm [2] | EC50 [3] | absorbance at 450 nm [4] | absorbance at 450 nm [5] | absorbance at 450 nm [7] | EC50 [9] | binding result [10] | absorbance at 450 nm [11] | absorbance at 450 nm [13] | absorbance at 450 nm [14] | absorbance at 450 nm [15] | absorbance at 450 nm [16] | absorbance at 450 nm [17] | absorbance at 450 nm [19] | absorbance at 450 nm [20] | absorbance at 450 nm [21] | absorbance at 450 nm [22] | absorbance at 450 nm [23] | absorbance at 450 nm [24] | other results
1 | B1 | 0.051 | 0.219 | 4.36 µg/mL and 54.5 nM | 0.707 | 0.325 | 0.562 | 4.06 µg/mL and 50.8 nM | no binding (tested: 0.014-10 µg/mL) | 0.182 | 0.433 | 0.392 | 0.732 | 0.192 | 0.203 | 0.188 | 0.214 | 0.119 | 0.399 | 0.199 | 0.451 | absorbance at 450 nm [6]: 3.3; absorbance at 450 nm [8]: 2.93; absorbance at 450 nm [12]: 1.19; absorbance at 450 nm [18]: 2.05; absorbance at 450 nm [25]: 1.31; Kd [26]: 3.36 nM; koff [26]: 0.000792 s⁻¹; kon [26]: 236000 M⁻¹ s⁻¹; absorbance at 450 nm [27]: 0.288; absorbance at 450 nm [28]: 1.73
2 | B2 | 0.077 | 0.231 | 0.113 µg/mL and 1.41 nM | 3.97 | 0.621 | 1.5 | 0.138 µg/mL and 1.73 nM | no binding (tested: 0.014-10 µg/mL) | 0.202 | 1.85 | 0.971 | 3.97 | 0.184 | 0.24 | 0.199 | 0.207 | 0.093 | 0.612 | 0.269 | 0.754 | Kd [26]: 3.91 nM; koff [26]: 0.00916 s⁻¹; kon [26]: 2.34e+06 M⁻¹ s⁻¹; absorbance at 450 nm [27]: 0.31
